Patent publication US20030059769, “High affinity nucleic acid ligands to lectins” (published 2003)

Columns and labels:
P-selectin (PS-Rg) [1] = target: T1, P-selectin (PS-Rg) (Homo sapiens, UniProt P16109 P16109:42-321); test: filter; 37 C, HSMC; conditions: tags: human IgG1 Fc fusion; chain copies: dimer; label: 32P
L-selectin (LS-Rg) = target: T2, L-selectin (LS-Rg) (Homo sapiens, UniProt P14151 P14151:39-332); test: filter; 37 C, SHMCK-140; conditions: tags: human IgG2 Fc fusion, chain copies: dimer, label: 32P
T2 sequence: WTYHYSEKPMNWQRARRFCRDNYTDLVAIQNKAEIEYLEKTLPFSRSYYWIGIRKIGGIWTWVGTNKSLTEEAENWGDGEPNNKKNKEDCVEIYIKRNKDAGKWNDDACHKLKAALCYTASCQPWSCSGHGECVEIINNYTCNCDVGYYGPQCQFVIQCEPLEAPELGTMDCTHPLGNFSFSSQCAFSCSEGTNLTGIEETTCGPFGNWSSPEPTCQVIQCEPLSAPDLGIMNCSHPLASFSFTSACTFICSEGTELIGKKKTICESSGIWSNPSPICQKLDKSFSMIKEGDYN
Description: As described in SELEX Patent Applications, a nitrocellulose filter partitioning method was used to determine the affinity of RNA ligands for LS-Rg and for other proteins. Filter discs (nitrocellulose/cellulose acetate mixed matrix, 0.45 μm pore size, Millipore) were placed on a vacuum manifold and washed with 3 ml of SHMCK 140 buffer under vacuum. Reaction mixtures, containing ³²P labeled RNA pools and unlabeled LS-Rg, were incubated in SHMCK 140 for 10-20 min at 37° C., and then immediately washed with 3 ml SHMCK 140. The filters were air-dried and counted in a Beckman LS6500 liquid scintillation counter without fluor. Alternatively, binding studies employed 96 well micro-titer manifolds essentially as described in Example 13, paragraph E.
These calculations assume two ligand binding sites per chimera.

P-selectin (PS-Rg) [2] = target: T1, P-selectin (PS-Rg); test: filter; HSMC, 37 C; conditions: tags: human IgG Fc fusion; chain copies: 2 (stated dimer)
P-selectin (PS-Rg) [3] = target: T1, P-selectin (PS-Rg); test: inhibition; sialyl-LewisX; conditions: tags: human IgG Fc fusion, chain copies: 2 (stated dimer)
Description: The ability of evolved RNA pools or cloned ligands to inhibit the binding of PS-Rg to sialyl-Lewis^x was tested in competitive ELISA assays (C. Foxall et al., 1992, supra). For these assays, the wells of Corning (25801) 96 well microtiter plates were coated with 100 ng of a sialyl-Lewis^x/BSA conjugate, air dried overnight, washed with 300 μl of PBS(−) and then blocked with 1% BSA in HSMC for 60 min at room temperature. RNA ligands were incubated with PS-Rg in HSMC/1% BSA at room temperature for 15 min. After removal of the blocking solution, 50 μl of PS-Rg (10 nM) or a PS-Rg (10 nM)/RNA ligand mix was added to the coated, blocked wells and incubated at room temperature for 60 minutes. The binding solution was removed, wells were washed with 300 μl of PBS(−) and then probed with HRP conjugated anti-human IgG, at room temperature to quantitate PS-Rg binding. After a 30 minute incubation at room temperature in the dark with OPD peroxidase substrate (Sigma P9187), the extent of PS-Rg binding and percent inhibition was determined from the OD₄₅₀.

P-selectin (PS-Rg) [4] = target: T1, P-selectin (PS-Rg); test: filter; HSMC
[5] = tags: human IgG Fc fusion, chain copies: 2 (stated dimer)

T1 sequence (P16109 42-321, one chain of several): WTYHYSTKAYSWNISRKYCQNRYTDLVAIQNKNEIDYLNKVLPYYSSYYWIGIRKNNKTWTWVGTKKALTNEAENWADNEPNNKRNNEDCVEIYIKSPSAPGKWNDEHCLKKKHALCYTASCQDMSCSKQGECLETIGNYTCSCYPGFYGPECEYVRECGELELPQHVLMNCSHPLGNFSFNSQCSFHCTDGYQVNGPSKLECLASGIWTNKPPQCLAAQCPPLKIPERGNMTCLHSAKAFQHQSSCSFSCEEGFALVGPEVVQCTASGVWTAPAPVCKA

B1: PF411 (ssRNA)
RNA: GGGAGACAAGAAUAAACGCUCAACAACCCAACCAUCUAGAGCUUCGAACCAUGGUAUACAAGGGAACACAAAAUUCGCGGAGGCUCCAACAGGCGGC
modifications: 2'-F on all C and U
P-selectin (PS-Rg) [1]
  Kd: 0.013 nM

B2: LF1615 (ssRNA)
RNA: GGGAGGACGAUGCGGCGUAACUUCAGCGGUGUGUUAAUCAAGCCUUACGCCAUCUCAGACGACUCGCCCGA
modifications: 2'-F on all C and U
L-selectin (LS-Rg)
  Kd: 0.32 nM

B3: PF387 (ssRNA)
RNA: GGGAGACAAGAAUAAACGCUCAACGCACCAGGAACAACGAGAACCAUCAGUAAACGCGAGCGAUUGCAUGUUCGACAGGAGGCUCACAACAGGC
modifications: 2'-F C and U
P-selectin (PS-Rg) [2]
  Kd: 0.016 nM

B4: LF1508 (ssRNA)
RNA: GGGAGGACGAUGCGGGACCCUUAGGCAACGUGUUUUCAAGUUGGUCAGACGACUCGCCCGA
modifications: 2'-F on all C and U
L-selectin (LS-Rg)
  Kd: 0.5 nM

B5: LF1807 (ssRNA)
RNA: GGGAGGACGAUGCGGAGUCUUAGGCAGCGCGUUUUCGAGCUACUCCAUCGCCAGUCAGACGACUCGCCCGA
modifications: 2'-F on all C and U
L-selectin (LS-Rg); hairpin with 7-nt bulge
  Kd: 0.034 nM

B6: LF1523 (ssRNA)
RNA: GGGAGGACGAUGCGGUUCUUAAGCAGCGCGUCAAUCGAGCUAACCCAGACGACUCGCCCGA
modifications: 2'-F on all C and U
L-selectin (LS-Rg)
  Kd: 0.25 nM

B7: PF417 (ssRNA)
RNA: GGGAGACAAGAAUAAACGCUCAAAAAGACGUAUUCGAUUCGAAACGAGAAAGACUUCAAGUGAGCCCGCAGUUCGACAGGAGGCUCACAACAGGC
modifications: 2'-F C and U
P-selectin (PS-Rg) [2]
  Kd: 0.069 nM

B8: LF1811 (ssRNA)
RNA: GGGAGGACGAUGCGGUAAUCUCUUAGGCAUCGCGUUAAUCGAGAUAGAUCACCGUCAGACGACUCGCCCGA
modifications: 2'-F on all C and U
L-selectin (LS-Rg)
  Kd: 0.19 nM

B9: PF373 (ssRNA)
RNA: GGGAGACAAGAAUAAACGCUCAACGAAUCAGUAAACAUAACACCAUGAAACAUAAAUAGCACGCGAGACGUCUUCGACAGGAGGCUCACAACAGGC
modifications: 2'-F on all C and U
P-selectin (PS-Rg) [1]
  Kd: 0.0495 nM

B10: PF396 (ssRNA)
RNA: GGGAGACAAGAAUAAACGCUCAAGCGGUCAGAAACAAUAGCUGGAUACAUACCGCGCAUCCGCUGGGCGAUAUUCGACAGGAGGCUCACAACAGGC
modifications: 2'-F on all C and U
P-selectin (PS-Rg) [1]
  Kd: 0.024 nM

B11: PF377s2 (ssRNA)
RNA: CGCUCAACGAGCCAGGAACAUCGACGUCAGCAAACGCGAGCG
modifications: 2'-F C and U
P-selectin (PS-Rg) [3]
  IC50: 4 nM
P-selectin (PS-Rg) [4]; [5]
  Kd: 0.045 nM

B12: LF1610 (ssRNA)
RNA: GGGAGGACGAUGCGGAGGGUCUUAAGCAGUGUGAUAAUCAAACUACUCUCCGUGUCAGACGACUCGCCCGA
modifications: 2'-F on all C and U
L-selectin (LS-Rg)
  Kd: 0.53 nM

B13: PF416s2 (ssRNA)
RNA: CACUCAACCGGCACCAGACUACGAUCAGCAUUGGCGAGUG
modifications: 2'-F C and U
P-selectin (PS-Rg) [3]
  IC50: 3 nM
P-selectin (PS-Rg) [4]; [5]
  Kd: 0.15 nM

B14: PF388 (ssRNA)
RNA: GGGAGACAAGAAUAAACGCUCAACUGGCAACGGGAUAACAACAAAUGUCACCAGCACUAGCGAGACGGAAGGUUCGACAGGAGGCUCACAACAGGC
modifications: 2'-F C and U
P-selectin (PS-Rg) [2]
  Kd: 0.09 nM

B15: PF377M6 (ssRNA)
RNA: CUCAACGAGCCAGGAACAUCGACGUCAGCAAACGCGAG
modifications: 2'-F on all C and U; 2'-OMe purines at 11 positions
P-selectin (PS-Rg) [4]; tags: human IgG1 Fc fusion, chain copies: dimer
  Kd: 0.25 nM

B16: PF377M3 (ssRNA)
RNA: B15 RNA
modifications: 2'-F C and U; 2'-OMe G 7,9,14,21,36 and A 8,15,18,22,27,31,37 as listed
P-selectin (PS-Rg) [3]
  IC50: 10 nM
P-selectin (PS-Rg) [4]; [5]
  Kd: 0.9 nM

B17: PF377M1 (ssRNA)
RNA: B15 RNA
modifications: 2'-F C and U; 2'-OMe G7 G9 G14 G21 A8 A15 A18 A22 A27 A31
P-selectin (PS-Rg) [4]; [5]
  Kd: 0.12 nM

B18: PF377M4 (ssRNA)
RNA: B15 RNA
modifications: 2'-F C and U; 2'-OMe G 7,9,13,14,21,24,28,36 and A 8,15,18,22,27,30,31,37 as listed
P-selectin (PS-Rg) [4]; [5]
  Kd: 1.7 nM

B19: PF377s1F (ssRNA)
RNA: B15 RNA
modifications: 2'-F C and U
P-selectin (PS-Rg) [3]; label: fluorescein (inferred)
  IC50: 3 nM
P-selectin (PS-Rg) [4]; tags: human IgG Fc fusion, chain copies: 2 (stated dimer), label: fluorescein (inferred)
  Kd: 0.06 nM

B20: PF377s1B (ssRNA)
RNA: B15 RNA
modifications: 2'-F C and U, biotin
P-selectin (PS-Rg) [3]
  IC50: 3 nM
P-selectin (PS-Rg) [4]; [5]
  Kd: 0.065 nM

B21: PF380 (ssRNA)
RNA: GGGAGACAAGAAUAAACGCUCAACGAGCAAAAGUACUCACGGGACCAGGAGAUCAGCAACACGCGAGACGAAAUUCGACAGGAGGCUCACAACAGGC
modifications: 2'-F on all C and U
P-selectin (PS-Rg) [1]
  Kd: 0.0745 nM

B22: LF1514 (ssRNA)
RNA: GGGAGGACGAUGCGGUACCUCAAAUUGCGUGUUUUCAAGCAGUAUCAGACGACUCGCCCGA
modifications: 2'-F on all C and U
L-selectin (LS-Rg); hairpin with 7-nt bulge
  Kd: 0.13 nM

B23: PF416 (ssRNA)
RNA: GGGAGACAAGAAUAAACGCUCAACAGUUCACUCAACCGGCACCAGACUACGAUCAGCAUUGGCGAGUGAACACUUCGACAGGAGGCUCACAACAGGC
modifications: 2'-F C and U
P-selectin (PS-Rg) [2]
  Kd: 0.063 nM

B24: PF412 (ssRNA)
RNA: GGGAGACAAGAAUAAACGCUCAACGACCACAAUACAAACUCGUAUGGAACACGCGAGCGACAGUGACGCAUUUUCGACAGGAGGCUCACAACAGGC
modifications: 2'-F on all C and U
P-selectin (PS-Rg) [1]
  Kd: 0.45 nM

B25: LF1518 (ssRNA)
RNA: GGGAGGACGAUGCGGGCAAAUUGCAUGCGUUUUCGAGUGCUUGCUCAGACGACUCGCCCGA
modifications: 2'-F on all C and U
L-selectin (LS-Rg)
  Kd: 0.42 nM

B26: PF404 (ssRNA)
RNA: GGGAGACAAGAAUAAACGCUCAAUCAGCAGUAAGCGAUCCUAUAAAGAUCAACUAGCCAAAGAUGACUUAUUCGACAGGAGGCUCACAACAGGC
modifications: 2'-F C and U
P-selectin (PS-Rg) [2]
  Kd: 0.0475 nM

B27: LF1613 (ssRNA)
RNA: GGGAGGACGAUGCGGUGCUAUUCUUAAGCGGCGUGUUUUUCAAGCCAAUAUCAUCAGACGACUCGCCCGA
modifications: 2'-F on all C and U
L-selectin (LS-Rg)
  Kd: 0.034 nM

B28: LF1513 (ssRNA)
RNA: GGGAGGACGAUGCGGGCUCUUCAGCAACGUGUUAUCAAGUUAGCCCAGACGACUCGCCCGA
modifications: 2'-F on all C and U
L-selectin (LS-Rg)
  Kd: 0.16 nM

B29: PF386 (ssRNA)
RNA: GGGAGACAAGAAUAAACGCUCAAACAAGAGAGUCAAACCAAGUGAGAUCAGAGCGUUUAGCGCGGAAAGCACAUUCGACAGGAGGCUCACAACAGGC
modifications: 2'-F C and U
P-selectin (PS-Rg) [2]
  Kd: 0.0455 nM

B30: PF398 (ssRNA)
RNA: GGGAGACAAGAAUAAACGCUCAACGAACCACGGGGAAAUCCACCAGUAACACGCGAGGCAAACAGACCCUCUUCGACAGGAGGCUCACAACAGGC
modifications: 2'-F C and U
P-selectin (PS-Rg) [2]
  Kd: 0.046 nM

B31: PF378 (ssRNA)
RNA: GGGAGACAAGAAUAAACGCUCAACGAUGAGCGUGACCGAAGCUAUAAUCAGGUCGAUUCACCAAGCAAUCUUAUUCGACAGGAGGCUCACAACAGGC
modifications: 2'-F on all C and U
P-selectin (PS-Rg) [1]
  Kd: 0.0515 nM

B32: PF422 (ssRNA)
RNA: GGGAGACAAGAAUAAACGCUCAACGUCAAGCCAGAAUCCGGAACACGCGAGAAAACAAAUCAACGACCAAUCGAUUCGACAGGAGGCUCACAAAGGC
modifications: 2'-F on all C and U
P-selectin (PS-Rg) [1]
  Kd: 0.172 nM

B33: PF395 (ssRNA)
RNA: GGGAGACAAGAAUAAACGCUCAACGAGCAAGGAACGAAUACAAACCAGGAAACUCAGCAACACGCGAGCAGUAAGAAUUCGACAGGAGGCUCACAACAGGC
modifications: 2'-F on all C and U
P-selectin (PS-Rg) [1]
  Kd: 0.026 nM

B34: PF381 (ssRNA)
RNA: GGGAGACAAGAAUAAACGCUCAAAGGAUCACACAAACAUCGGUCAAUAAAUAAGUAUUGAUAGCGGGGAUAUUCGACAGGAGGCUCACAACAGGC
modifications: 2'-F on all C and U
P-selectin (PS-Rg) [1]
  Kd: 0.0165 nM
